Data published in patent US20230257453A1 (published 2023).
Like-named read-outs stand apart in the source and are kept apart here.

Legend:
Assay in all cases: ELISA
[1] = target: T1, denatured human collagen type IV (UniProt P02462 173-1669; P08572 184-1712)
[2] = target: T2, denatured human collagen I (UniProt P02452 162-1218; P08123 80-1119)
[3] = target: T1, denatured human collagen type IV; remark: listed apart in the source
[4] = target: T2, denatured human collagen I; remark: listed apart in the source

T1 sequence (P02462 173-1669, chain 1 of 2): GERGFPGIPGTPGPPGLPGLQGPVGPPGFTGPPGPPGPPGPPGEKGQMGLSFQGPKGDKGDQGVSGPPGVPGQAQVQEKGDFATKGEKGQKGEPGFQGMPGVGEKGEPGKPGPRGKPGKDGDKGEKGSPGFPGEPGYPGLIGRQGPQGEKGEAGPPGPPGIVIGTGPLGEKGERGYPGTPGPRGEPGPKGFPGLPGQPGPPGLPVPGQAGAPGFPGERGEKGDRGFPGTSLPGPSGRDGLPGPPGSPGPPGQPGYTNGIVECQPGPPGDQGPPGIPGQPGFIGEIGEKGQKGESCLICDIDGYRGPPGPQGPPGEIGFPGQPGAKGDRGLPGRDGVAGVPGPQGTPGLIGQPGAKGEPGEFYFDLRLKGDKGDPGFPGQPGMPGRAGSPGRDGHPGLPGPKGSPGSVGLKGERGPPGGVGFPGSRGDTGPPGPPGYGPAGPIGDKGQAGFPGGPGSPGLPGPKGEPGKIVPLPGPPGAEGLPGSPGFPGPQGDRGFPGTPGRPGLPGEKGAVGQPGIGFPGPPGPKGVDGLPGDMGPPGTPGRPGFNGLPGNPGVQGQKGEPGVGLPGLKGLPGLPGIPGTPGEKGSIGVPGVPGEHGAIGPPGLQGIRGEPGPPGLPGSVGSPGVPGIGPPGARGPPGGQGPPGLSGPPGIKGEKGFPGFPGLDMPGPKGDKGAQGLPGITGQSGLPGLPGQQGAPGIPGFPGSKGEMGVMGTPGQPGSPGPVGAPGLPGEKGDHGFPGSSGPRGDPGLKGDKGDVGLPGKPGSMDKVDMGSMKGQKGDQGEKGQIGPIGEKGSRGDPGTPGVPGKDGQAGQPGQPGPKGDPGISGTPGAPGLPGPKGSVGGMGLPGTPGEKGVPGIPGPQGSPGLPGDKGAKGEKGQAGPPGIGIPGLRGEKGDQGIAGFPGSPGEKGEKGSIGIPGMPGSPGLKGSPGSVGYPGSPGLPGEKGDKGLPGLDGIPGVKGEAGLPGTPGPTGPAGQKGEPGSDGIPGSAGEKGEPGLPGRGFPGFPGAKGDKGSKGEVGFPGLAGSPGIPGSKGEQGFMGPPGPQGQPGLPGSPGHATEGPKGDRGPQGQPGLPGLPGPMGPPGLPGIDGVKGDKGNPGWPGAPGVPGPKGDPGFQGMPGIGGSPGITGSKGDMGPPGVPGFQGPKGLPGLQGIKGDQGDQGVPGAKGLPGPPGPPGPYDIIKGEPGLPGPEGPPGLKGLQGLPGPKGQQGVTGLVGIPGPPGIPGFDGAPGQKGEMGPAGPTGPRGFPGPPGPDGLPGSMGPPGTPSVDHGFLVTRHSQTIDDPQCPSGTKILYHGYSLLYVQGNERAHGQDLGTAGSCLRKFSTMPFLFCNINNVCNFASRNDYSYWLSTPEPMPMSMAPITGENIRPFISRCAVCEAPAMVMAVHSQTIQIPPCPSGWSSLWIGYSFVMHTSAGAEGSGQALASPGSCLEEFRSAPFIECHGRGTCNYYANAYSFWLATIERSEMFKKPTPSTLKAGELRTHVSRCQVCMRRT
T1 sequence (P08572 184-1712, chain 2 of 2): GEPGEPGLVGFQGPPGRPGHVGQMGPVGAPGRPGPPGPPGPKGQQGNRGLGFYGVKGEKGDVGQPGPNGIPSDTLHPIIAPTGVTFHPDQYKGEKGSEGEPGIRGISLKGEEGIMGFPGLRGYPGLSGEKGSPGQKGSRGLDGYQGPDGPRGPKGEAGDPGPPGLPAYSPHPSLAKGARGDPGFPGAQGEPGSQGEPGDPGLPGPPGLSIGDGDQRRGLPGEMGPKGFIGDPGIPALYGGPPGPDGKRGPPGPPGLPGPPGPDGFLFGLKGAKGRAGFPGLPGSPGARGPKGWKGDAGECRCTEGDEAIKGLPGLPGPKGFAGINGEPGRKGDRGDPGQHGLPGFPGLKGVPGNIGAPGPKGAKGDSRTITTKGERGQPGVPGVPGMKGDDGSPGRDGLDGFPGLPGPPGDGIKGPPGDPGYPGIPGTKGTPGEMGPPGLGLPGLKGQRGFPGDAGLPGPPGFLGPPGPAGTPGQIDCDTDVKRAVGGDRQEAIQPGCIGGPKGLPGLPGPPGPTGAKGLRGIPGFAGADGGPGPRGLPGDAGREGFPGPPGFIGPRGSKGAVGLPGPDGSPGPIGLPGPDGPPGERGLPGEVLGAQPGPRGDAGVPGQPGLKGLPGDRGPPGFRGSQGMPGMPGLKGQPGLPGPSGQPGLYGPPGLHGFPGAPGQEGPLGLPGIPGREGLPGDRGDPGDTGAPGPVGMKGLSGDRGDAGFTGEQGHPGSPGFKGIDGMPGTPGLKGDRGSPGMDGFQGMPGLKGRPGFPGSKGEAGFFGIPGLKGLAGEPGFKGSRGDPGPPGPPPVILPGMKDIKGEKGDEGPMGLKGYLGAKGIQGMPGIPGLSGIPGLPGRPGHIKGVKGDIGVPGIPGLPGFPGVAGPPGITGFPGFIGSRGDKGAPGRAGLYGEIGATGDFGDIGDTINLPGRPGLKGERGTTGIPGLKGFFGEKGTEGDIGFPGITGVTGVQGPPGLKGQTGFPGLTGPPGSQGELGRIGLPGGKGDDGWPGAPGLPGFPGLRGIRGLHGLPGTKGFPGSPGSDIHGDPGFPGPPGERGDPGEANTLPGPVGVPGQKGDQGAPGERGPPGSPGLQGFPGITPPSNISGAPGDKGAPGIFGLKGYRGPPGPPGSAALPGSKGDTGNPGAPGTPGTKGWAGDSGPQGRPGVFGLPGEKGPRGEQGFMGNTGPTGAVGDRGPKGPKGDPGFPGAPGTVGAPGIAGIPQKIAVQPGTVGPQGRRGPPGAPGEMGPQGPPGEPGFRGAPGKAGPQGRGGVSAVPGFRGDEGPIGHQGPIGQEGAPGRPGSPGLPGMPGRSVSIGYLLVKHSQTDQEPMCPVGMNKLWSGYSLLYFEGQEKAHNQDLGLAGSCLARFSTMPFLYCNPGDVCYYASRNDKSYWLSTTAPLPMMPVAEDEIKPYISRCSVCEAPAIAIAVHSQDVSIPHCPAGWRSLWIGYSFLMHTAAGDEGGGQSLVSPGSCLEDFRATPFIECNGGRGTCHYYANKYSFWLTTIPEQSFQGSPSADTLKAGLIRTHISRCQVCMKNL
T2 sequence (P02452 162-1218 A1075T, chain 1 of 2): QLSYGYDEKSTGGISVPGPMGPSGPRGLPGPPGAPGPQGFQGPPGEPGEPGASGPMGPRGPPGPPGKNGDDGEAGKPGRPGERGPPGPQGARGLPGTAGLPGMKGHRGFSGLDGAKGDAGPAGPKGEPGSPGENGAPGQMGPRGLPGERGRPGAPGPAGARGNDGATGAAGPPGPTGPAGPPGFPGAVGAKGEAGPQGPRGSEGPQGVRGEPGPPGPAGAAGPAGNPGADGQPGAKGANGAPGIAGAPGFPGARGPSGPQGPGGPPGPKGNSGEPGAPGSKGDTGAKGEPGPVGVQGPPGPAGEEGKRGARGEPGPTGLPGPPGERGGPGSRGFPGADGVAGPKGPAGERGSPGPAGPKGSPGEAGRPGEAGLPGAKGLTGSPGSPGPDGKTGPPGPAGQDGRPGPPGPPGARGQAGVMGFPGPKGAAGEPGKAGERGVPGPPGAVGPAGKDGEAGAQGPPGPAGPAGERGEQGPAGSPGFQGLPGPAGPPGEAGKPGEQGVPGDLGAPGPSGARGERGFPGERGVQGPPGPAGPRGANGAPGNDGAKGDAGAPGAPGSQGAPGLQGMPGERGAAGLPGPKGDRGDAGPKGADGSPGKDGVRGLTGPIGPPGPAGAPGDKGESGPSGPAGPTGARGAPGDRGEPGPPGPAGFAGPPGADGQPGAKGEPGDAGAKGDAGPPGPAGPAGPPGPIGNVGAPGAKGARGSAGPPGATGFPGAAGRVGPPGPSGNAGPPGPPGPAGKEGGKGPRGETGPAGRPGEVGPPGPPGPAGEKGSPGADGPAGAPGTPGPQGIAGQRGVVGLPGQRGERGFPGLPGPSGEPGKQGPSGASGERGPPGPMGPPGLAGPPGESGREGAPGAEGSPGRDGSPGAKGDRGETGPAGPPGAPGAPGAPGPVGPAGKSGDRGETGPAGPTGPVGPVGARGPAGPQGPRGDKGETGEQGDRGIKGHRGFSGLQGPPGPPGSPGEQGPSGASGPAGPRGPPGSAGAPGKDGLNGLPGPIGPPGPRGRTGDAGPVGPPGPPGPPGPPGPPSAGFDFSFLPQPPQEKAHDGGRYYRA
T2 sequence (P08123 80-1119, chain 2 of 2): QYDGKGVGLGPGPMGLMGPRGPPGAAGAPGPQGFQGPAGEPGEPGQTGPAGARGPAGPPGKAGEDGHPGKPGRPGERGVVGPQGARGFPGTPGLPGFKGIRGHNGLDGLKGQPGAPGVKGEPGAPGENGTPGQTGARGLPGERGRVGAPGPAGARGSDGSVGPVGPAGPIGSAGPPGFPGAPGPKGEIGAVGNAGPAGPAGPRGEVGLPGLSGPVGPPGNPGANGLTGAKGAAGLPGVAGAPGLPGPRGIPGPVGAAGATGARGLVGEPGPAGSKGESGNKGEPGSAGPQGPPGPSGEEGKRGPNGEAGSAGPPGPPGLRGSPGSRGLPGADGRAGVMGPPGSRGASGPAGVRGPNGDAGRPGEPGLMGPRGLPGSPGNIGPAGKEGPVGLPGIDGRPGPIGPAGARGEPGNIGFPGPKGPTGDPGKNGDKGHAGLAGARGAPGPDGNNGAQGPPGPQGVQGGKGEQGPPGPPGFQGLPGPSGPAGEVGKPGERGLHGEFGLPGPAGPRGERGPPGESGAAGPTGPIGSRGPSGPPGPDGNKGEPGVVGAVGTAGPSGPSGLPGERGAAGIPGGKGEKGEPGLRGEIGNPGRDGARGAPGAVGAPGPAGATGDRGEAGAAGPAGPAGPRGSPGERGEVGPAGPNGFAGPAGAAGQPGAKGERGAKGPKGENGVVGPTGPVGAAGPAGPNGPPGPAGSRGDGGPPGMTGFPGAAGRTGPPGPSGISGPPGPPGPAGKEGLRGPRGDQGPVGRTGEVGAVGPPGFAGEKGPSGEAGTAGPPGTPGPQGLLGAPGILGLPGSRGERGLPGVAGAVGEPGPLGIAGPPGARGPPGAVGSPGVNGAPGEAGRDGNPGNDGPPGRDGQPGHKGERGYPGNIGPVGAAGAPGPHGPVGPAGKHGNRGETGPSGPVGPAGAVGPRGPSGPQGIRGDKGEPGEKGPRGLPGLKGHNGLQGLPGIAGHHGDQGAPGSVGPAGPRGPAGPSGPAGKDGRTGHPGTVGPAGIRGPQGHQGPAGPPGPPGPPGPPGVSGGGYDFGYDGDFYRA

| EC50 [1] [nM] | EC50 [2] [nM] | EC50 [3] [nM] | EC50 [4] [nM] | Binder |
| --- | --- | --- | --- | --- |
| 9.91 | 11.9 |  |  | P27652716 (antibody, V domains shown) VH: QVTLKESGPALVKPTQTLTLTCTFSGFSLSTPGMGVWWIRQPPGEGLEWLADIWWDDNKYTNPSLKSRLTISKDTSKNQVVLTMTNMDPVDTATYYCARRANYGNPYYAQDYWGQGTTVTVSS VL: DIVMTQTPLSLPVTPGEPASISCRSSQSIVSSWGNTYLEWYLQKPGQSPQLLIYKVSNRFSGVPDRFSGSGSGTDFTLKISRVEAEDVGVYYCFQGSHVPWTFGQGTKVEIKR |
| 9.77 | 9.81 |  |  | P27662716 (antibody, V domains shown) VH: QVTLKESGPALVKPTQTLTLTCTFSGFSLSTPGMGVWWIRQPSGEGLEWLADIWWDDNKYTNPSLKSRLTISKDTSKNQVVLTMTNMDPVDTATYYCARRANYGNPYYAQDYWGQGTTVTVSS VL: DIVMTQTPLSLPVTPGEPASISCRSSQSIVSSWGNTYLEWYLQKPGQSPQLLIYKVSNRFSGVPDRFSGSGSGTDFTLKISRVEAEDVGVYYCFQGSHVPWTFGQGTKVEIKR |
| 1.69 | 2.39 |  |  | P27642716 (antibody, V domains shown) VH: QVTLKESGPALVKPTQTLTLTCTFSGFSLSTPGMGVWWIRQPPGKGLEWLADIWWDDNKYTNPSLKSRLTISKDTSKNQVVLTMTNMDPVDTATYYCARRANYGNPYYAQDYWGQGTTVTVSS VL: DIVMTQTPLSLPVTPGEPASISCRSSQSIVSSWGNTYLEWYLQKPGQSPQLLIYKVSNRFSGVPDRFSGSGSGTDFTLKISRVEAEDVGVYYCFQGSHVPWTFGQGTKVEIKR |
| 11.9 | 21.1 |  |  | P27602716 (antibody, V domains shown) VH: EVQLVESGGGLVQPGGSLRLSCAASGFSLSTPGMGVWWVRQAPGKGLEWLADIWWDDNKYTNPSLKSRLTISKDNAKNSLYLQMNSLRAEDTAVYYCARRANYGNPYYAQDYWGQGTTVTVSS VL: DIVMTQTPLSLPVTPGEPASISCRSSQSIVSSWGNTYLEWYLQKPGQSPQLLIYKVSNRFSGVPDRFSGSGSGTDFTLKISRVEAEDVGVYYCFQGSHVPWTFGQGTKVEIKR |
| 6.13 | 10.9 |  |  | P27612716 (antibody, V domains shown) VH: EVQLVESGGGLVQPGGSLRLSCAASGFSLSTPGMGVWWIRQAPGKGLEWLADIWWDDNKYTNPSLKSRLTISKDNAKNSLYLQMNSLRAEDTAVYYCARRANYGNPYYAQDYWGQGTTVTVSS VL: DIVMTQTPLSLPVTPGEPASISCRSSQSIVSSWGNTYLEWYLQKPGQSPQLLIYKVSNRFSGVPDRFSGSGSGTDFTLKISRVEAEDVGVYYCFQGSHVPWTFGQGTKVEIKR |
| 1.86 | 2.44 |  |  | P27592716 (antibody, V domains shown) VH: EVQLVESGGGLVQPGGSLRLSCAASGFSLSTPGMGVWWIRQAPGKGLEWLADIWWDDNKYTNPSLKSRLTISRDNAKNSLYLQMNSLRAEDTAVYYCARRANYGNPYYAQDYWGQGTTVTVSS VL: DIVMTQTPLSLPVTPGEPASISCRSSQSIVSSWGNTYLEWYLQKPGQSPQLLIYKVSNRFSGVPDRFSGSGSGTDFTLKISRVEAEDVGVYYCFQGSHVPWTFGQGTKVEIKR |
|  |  | 6.48 |  | P27962797 (antibody) chain 1: not shown chain 2: DIVMTQTPLSLPVTPGEPASISCRSSQSIVHSSGNTYLEWYLQKPGQSPQLLIYKVSNRFSGVPDRFSGSGSGTDFTLKISRVEAEDVGVYYCFQGSHVPWTFGQGTKVEIKRTVAAPSVFIFPPSDEQLKSGTASVVCLLNNFYPREAKVQWKVDNALQSGNSQESVTEQDSKDSTYSLSSTLTLSKADYEKHKVYACEVTHQGLSSPVTKSFNRGEC |

The next lines start with the binder.

| Binder | EC50 [1] [nM] | EC50 [2] [nM] | EC50 [3] [nM] | EC50 [4] [nM] |
| --- | --- | --- | --- | --- |
| P27582716 (antibody, V domains shown) VH: EVQLVESGGGLVQPGGSLRLSCAASGFSLSTPGMGVWWIRQAPGKGLEWVADIWWDDNKYTNPSLKSRLTISRDNAKNSLYLQMNSLRAEDTAVYYCARRANYGNPYYAQDYWGQGTTVTVSS VL: DIVMTQTPLSLPVTPGEPASISCRSSQSIVSSWGNTYLEWYLQKPGQSPQLLIYKVSNRFSGVPDRFSGSGSGTDFTLKISRVEAEDVGVYYCFQGSHVPWTFGQGTKVEIKR | 3.83 | 9.38 |  |  |
| P27632716 (antibody, V domains shown) VH: QVTLKESGPALVKPTQTLTLTCTFSGFSLSTPGMGVWWIRQPPGEALEWLADIWWDDNKYTNPSLKSRLTISKDTSKNQVVLTMTNMDPVDTATYYCARRANYGNPYYAQDYWGQGTTVTVSS VL: DIVMTQTPLSLPVTPGEPASISCRSSQSIVSSWGNTYLEWYLQKPGQSPQLLIYKVSNRFSGVPDRFSGSGSGTDFTLKISRVEAEDVGVYYCFQGSHVPWTFGQGTKVEIKR | 5.05 | 3.04 |  |  |
| P27622716 (antibody) chain 1: not shown chain 2: DIVMTQTPLSLPVTPGEPASISCRSSQSIVSSWGNTYLEWYLQKPGQSPQLLIYKVSNRFSGVPDRFSGSGSGTDFTLKISRVEAEDVGVYYCFQGSHVPWTFGQGTKVEIKRTVAAPSVFIFPPSDEQLKSGTASVVCLLNNFYPREAKVQWKVDNALQSGNSQESVTEQDSKDSTYSLSSTLTLSKADYEKHKVYACEVTHQGLSSPVTKSFNRGEC | 4.01 | 3.73 |  |  |
| P27912716 (antibody) chain 1: not shown chain 2: DIVMTQTPLSLPVTPGEPASISCRSSQSIVSSWGNTYLEWYLQKPGQSPQLLIYKVSNRFSGVPDRFSGSGSGTDFTLKISRVEAEDVGVYYCFQGSHVPWTFGQGTKVEIKRTVAAPSVFIFPPSDEQLKSGTASVVCLLNNFYPREAKVQWKVDNALQSGNSQESVTEQDSKDSTYSLSSTLTLSKADYEKHKVYACEVTHQGLSSPVTKSFNRGEC |  |  | 4.97 |  |
| P27922716 (antibody) chain 1: not shown chain 2: DIVMTQTPLSLPVTPGEPASISCRSSQSIVSSWGNTYLEWYLQKPGQSPQLLIYKVSNRFSGVPDRFSGSGSGTDFTLKISRVEAEDVGVYYCFQGSHVPWTFGQGTKVEIKRTVAAPSVFIFPPSDEQLKSGTASVVCLLNNFYPREAKVQWKVDNALQSGNSQESVTEQDSKDSTYSLSSTLTLSKADYEKHKVYACEVTHQGLSSPVTKSFNRGEC |  |  | 4.5 |  |
| P28612716 (antibody) chain 1: not shown chain 2: DIVMTQTPLSLPVTPGEPASISCRSSQSIVSSWGNTYLEWYLQKPGQSPQLLIYKVSNRFSGVPDRFSGSGSGTDFTLKISRVEAEDVGVYYCFQGSHVPWTFGQGTKVEIKRTVAAPSVFIFPPSDEQLKSGTASVVCLLNNFYPREAKVQWKVDNALQSGNSQESVTEQDSKDSTYSLSSTLTLSKADYEKHKVYACEVTHQGLSSPVTKSFNRGEC |  |  | 2.63 |  |
| P27962798 (antibody) chain 1: not shown chain 2: DIVMTQTPLSLPVTPGEPASISCRSSQSIVHSNANTYLEWYLQKPGQSPQLLIYKVSNRFSGVPDRFSGSGSGTDFTLKISRVEAEDVGVYYCFQGSHVPWTFGQGTKVEIKRTVAAPSVFIFPPSDEQLKSGTASVVCLLNNFYPREAKVQWKVDNALQSGNSQESVTEQDSKDSTYSLSSTLTLSKADYEKHKVYACEVTHQGLSSPVTKSFNRGEC |  |  | 2.53 |  |
| P27202713 (antibody) chain 1: not shown chain 2: DIVMTQTPLSLPVTPGEPASISCRSSQSIVHSNGNTYLEWYLQKPGQSPQLLIYKVSNRFSGVPDRFSGSGSGTDFTLKISRVEAEDVGVYYCFQGSHVPWTFGQGTKVEIKRTVAAPSVFIFPPSDEQLKSGTASVVCLLNNFYPREAKVQWKVDNALQSGNSQESVTEQDSKDSTYSLSSTLTLSKADYEKHKVYACEVTHQGLSSPVTKSFNRGEC |  |  | 7.41 |  |
| P27902713 (antibody) chain 1: not shown chain 2: DIVMTQTPLSLPVTPGEPASISCRSSQSIVHSNGNTYLEWYLQKPGQSPQLLIYKVSNRFSGVPDRFSGSGSGTDFTLKISRVEAEDVGVYYCFQGSHVPWTFGQGTKVEIKRTVAAPSVFIFPPSDEQLKSGTASVVCLLNNFYPREAKVQWKVDNALQSGNSQESVTEQDSKDSTYSLSSTLTLSKADYEKHKVYACEVTHQGLSSPVTKSFNRGEC |  |  | 57.4 |  |
| P27952798 (antibody) chain 1: not shown chain 2: DIVMTQTPLSLPVTPGEPASISCRSSQSIVHSNANTYLEWYLQKPGQSPQLLIYKVSNRFSGVPDRFSGSGSGTDFTLKISRVEAEDVGVYYCFQGSHVPWTFGQGTKVEIKRTVAAPSVFIFPPSDEQLKSGTASVVCLLNNFYPREAKVQWKVDNALQSGNSQESVTEQDSKDSTYSLSSTLTLSKADYEKHKVYACEVTHQGLSSPVTKSFNRGEC |  |  | 18.4 |  |
| P27202714 (antibody) chain 1: not shown chain 2: DIVMTQTPLSLPVTPGEPASISCRSSQSIVHSQGNTYLEWYLQKPGQSPQLLIYKVSNRFSGVPDRFSGSGSGTDFTLKISRVEAEDVGVYYCFQGSHVPWTFGQGTKVEIKRTVAAPSVFIFPPSDEQLKSGTASVVCLLNNFYPREAKVQWKVDNALQSGNSQESVTEQDSKDSTYSLSSTLTLSKADYEKHKVYACEVTHQGLSSPVTKSFNRGEC |  |  | 30.4 |  |
| P27202716 (antibody) chain 1: not shown chain 2: DIVMTQTPLSLPVTPGEPASISCRSSQSIVSSWGNTYLEWYLQKPGQSPQLLIYKVSNRFSGVPDRFSGSGSGTDFTLKISRVEAEDVGVYYCFQGSHVPWTFGQGTKVEIKRTVAAPSVFIFPPSDEQLKSGTASVVCLLNNFYPREAKVQWKVDNALQSGNSQESVTEQDSKDSTYSLSSTLTLSKADYEKHKVYACEVTHQGLSSPVTKSFNRGEC |  |  | 3.34 |  |
| P27152797 (antibody) chain 1: not shown chain 2: DIVMTQTPLSLPVTPGEPASISCRSSQSIVHSSGNTYLEWYLQKPGQSPQLLIYKVSNRFSGVPDRFSGSGSGTDFTLKISRVEAEDVGVYYCFQGSHVPWTFGQGTKVEIKRTVAAPSVFIFPPSDEQLKSGTASVVCLLNNFYPREAKVQWKVDNALQSGNSQESVTEQDSKDSTYSLSSTLTLSKADYEKHKVYACEVTHQGLSSPVTKSFNRGEC | 9.3 |  |  | 26 |
